First the molecules themselves.
B1: Cross-linked peptide #6 (peptide)
peptide: IWIAQALXAIGDQFNAYYA
modifications: not fully specified; N-terminal Ac; Cit at residue 8 (column 153); $r8 at residue 9 (column 154) and $ at residue 16 (column 161), crosslinked; C-terminal NH2
B2: Cross-linked peptide #1 (peptide)
peptide: Ac-IWIAQALR[R8]IGDEFN[S5]YYA-NH2
modifications: staple 9-16
SMILES: CC[C@H](C)[C@H](NC(C)=O)C(=O)N[C@@H](Cc1c[nH]c2ccccc12)C(=O)N[C@H](C(=O)N[C@@H](C)C(=O)N[C@@H](CCC(N)=O)C(=O)N[C@@H](C)C(=O)N[C@@H](CC(C)C)C(=O)N[C@@H](CCCNC(=N)N)C(=O)N[C@]1(C)CCCCCCC=CCCC[C@@](C)(C(=O)N[C@@H](Cc2ccc(O)cc2)C(=O)N[C@@H](Cc2ccc(O)cc2)C(=O)N[C@@H](C)C(N)=O)NC(=O)[C@H](CC(N)=O)NC(=O)[C@H](Cc2ccccc2)NC(=O)[C@H](CCC(=O)O)NC(=O)[C@H](CC(=O)O)NC(=O)CNC(=O)[C@H]([C@@H](C)CC)NC1=O)[C@@H](C)CC
B3: Cross-linked peptide #2 (peptide)
peptide: Ac-IWIAQALR[R8]IGDQFN[S5]YYA-NH2
modifications: staple 9-16
SMILES: CC[C@H](C)[C@H](NC(C)=O)C(=O)N[C@@H](Cc1c[nH]c2ccccc12)C(=O)N[C@H](C(=O)N[C@@H](C)C(=O)N[C@@H](CCC(N)=O)C(=O)N[C@@H](C)C(=O)N[C@@H](CC(C)C)C(=O)N[C@@H](CCCNC(=N)N)C(=O)N[C@]1(C)CCCCCCC=CCCC[C@@](C)(C(=O)N[C@@H](Cc2ccc(O)cc2)C(=O)N[C@@H](Cc2ccc(O)cc2)C(=O)N[C@@H](C)C(N)=O)NC(=O)[C@H](CC(N)=O)NC(=O)[C@H](Cc2ccccc2)NC(=O)[C@H](CCC(N)=O)NC(=O)[C@H](CC(=O)O)NC(=O)CNC(=O)[C@H]([C@@H](C)CC)NC1=O)[C@@H](C)CC
B4: SEQ ID NO: 1784 (peptide)
peptide: Ac-IWIAQALR[R8]IGDEFN[St]YYA[R5]A-NH2
modifications: staple 16-20, 9-16
B5: SEQ ID NO: 1760 (peptide)
peptide: Ac-IWIAAALR[R8]IGDAFN[S5]YYD-NH2
modifications: staple 9-16
SMILES: CC[C@H](C)[C@H](NC(C)=O)C(=O)N[C@@H](Cc1c[nH]c2ccccc12)C(=O)N[C@H](C(=O)N[C@@H](C)C(=O)N[C@@H](C)C(=O)N[C@@H](C)C(=O)N[C@@H](CC(C)C)C(=O)N[C@@H](CCCNC(=N)N)C(=O)N[C@]1(C)CCCCCCC=CCCC[C@@](C)(C(=O)N[C@@H](Cc2ccc(O)cc2)C(=O)N[C@@H](Cc2ccc(O)cc2)C(=O)N[C@@H](CC(=O)O)C(N)=O)NC(=O)[C@H](CC(N)=O)NC(=O)[C@H](Cc2ccccc2)NC(=O)[C@H](C)NC(=O)[C@H](CC(=O)O)NC(=O)CNC(=O)[C@H]([C@@H](C)CC)NC1=O)[C@@H](C)CC
B6: SEQ ID NO: 1766 (peptide)
peptide: Ac-IWIAAALR[R8]IGDAFN[S5]YYK-NH2
modifications: staple 9-16
SMILES: CC[C@H](C)[C@H](NC(C)=O)C(=O)N[C@@H](Cc1c[nH]c2ccccc12)C(=O)N[C@H](C(=O)N[C@@H](C)C(=O)N[C@@H](C)C(=O)N[C@@H](C)C(=O)N[C@@H](CC(C)C)C(=O)N[C@@H](CCCNC(=N)N)C(=O)N[C@]1(C)CCCCCCC=CCCC[C@@](C)(C(=O)N[C@@H](Cc2ccc(O)cc2)C(=O)N[C@@H](Cc2ccc(O)cc2)C(=O)N[C@@H](CCCCN)C(N)=O)NC(=O)[C@H](CC(N)=O)NC(=O)[C@H](Cc2ccccc2)NC(=O)[C@H](C)NC(=O)[C@H](CC(=O)O)NC(=O)CNC(=O)[C@H]([C@@H](C)CC)NC1=O)[C@@H](C)CC
B7: SEQ ID NO: 1762 (peptide)
peptide: Ac-IWIAAALR[R8]IGDAFN[S5]YYQ-NH2
modifications: staple 9-16
SMILES: CC[C@H](C)[C@H](NC(C)=O)C(=O)N[C@@H](Cc1c[nH]c2ccccc12)C(=O)N[C@H](C(=O)N[C@@H](C)C(=O)N[C@@H](C)C(=O)N[C@@H](C)C(=O)N[C@@H](CC(C)C)C(=O)N[C@@H](CCCNC(=N)N)C(=O)N[C@]1(C)CCCCCCC=CCCC[C@@](C)(C(=O)N[C@@H](Cc2ccc(O)cc2)C(=O)N[C@@H](Cc2ccc(O)cc2)C(=O)N[C@@H](CCC(N)=O)C(N)=O)NC(=O)[C@H](CC(N)=O)NC(=O)[C@H](Cc2ccccc2)NC(=O)[C@H](C)NC(=O)[C@H](CC(=O)O)NC(=O)CNC(=O)[C@H]([C@@H](C)CC)NC1=O)[C@@H](C)CC
B8: SEQ ID NO: 1764 (peptide)
peptide: Ac-IWIAAALR[R8]IGDAFN[S5]YYH-NH2
modifications: staple 9-16
SMILES: CC[C@H](C)[C@H](NC(C)=O)C(=O)N[C@@H](Cc1c[nH]c2ccccc12)C(=O)N[C@H](C(=O)N[C@@H](C)C(=O)N[C@@H](C)C(=O)N[C@@H](C)C(=O)N[C@@H](CC(C)C)C(=O)N[C@@H](CCCNC(=N)N)C(=O)N[C@]1(C)CCCCCCC=CCCC[C@@](C)(C(=O)N[C@@H](Cc2ccc(O)cc2)C(=O)N[C@@H](Cc2ccc(O)cc2)C(=O)N[C@@H](Cc2c[nH]cn2)C(N)=O)NC(=O)[C@H](CC(N)=O)NC(=O)[C@H](Cc2ccccc2)NC(=O)[C@H](C)NC(=O)[C@H](CC(=O)O)NC(=O)CNC(=O)[C@H]([C@@H](C)CC)NC1=O)[C@@H](C)CC
B9: SEQ ID NO: 1761 (peptide)
peptide: Ac-IWIAAALR[R8]IGDAFN[S5]YYE-NH2
modifications: staple 9-16
SMILES: CC[C@H](C)[C@H](NC(C)=O)C(=O)N[C@@H](Cc1c[nH]c2ccccc12)C(=O)N[C@H](C(=O)N[C@@H](C)C(=O)N[C@@H](C)C(=O)N[C@@H](C)C(=O)N[C@@H](CC(C)C)C(=O)N[C@@H](CCCNC(=N)N)C(=O)N[C@]1(C)CCCCCCC=CCCC[C@@](C)(C(=O)N[C@@H](Cc2ccc(O)cc2)C(=O)N[C@@H](Cc2ccc(O)cc2)C(=O)N[C@@H](CCC(=O)O)C(N)=O)NC(=O)[C@H](CC(N)=O)NC(=O)[C@H](Cc2ccccc2)NC(=O)[C@H](C)NC(=O)[C@H](CC(=O)O)NC(=O)CNC(=O)[C@H]([C@@H](C)CC)NC1=O)[C@@H](C)CC
B10: SEQ ID NO: 1763 (peptide)
peptide: Ac-IWIAAALR[R8]IGDAFN[S5]YYS-NH2
modifications: staple 9-16
SMILES: CC[C@H](C)[C@H](NC(C)=O)C(=O)N[C@@H](Cc1c[nH]c2ccccc12)C(=O)N[C@H](C(=O)N[C@@H](C)C(=O)N[C@@H](C)C(=O)N[C@@H](C)C(=O)N[C@@H](CC(C)C)C(=O)N[C@@H](CCCNC(=N)N)C(=O)N[C@]1(C)CCCCCCC=CCCC[C@@](C)(C(=O)N[C@@H](Cc2ccc(O)cc2)C(=O)N[C@@H](Cc2ccc(O)cc2)C(=O)N[C@@H](CO)C(N)=O)NC(=O)[C@H](CC(N)=O)NC(=O)[C@H](Cc2ccccc2)NC(=O)[C@H](C)NC(=O)[C@H](CC(=O)O)NC(=O)CNC(=O)[C@H]([C@@H](C)CC)NC1=O)[C@@H](C)CC
B11: SEQ ID NO: 1765 (peptide)
peptide: Ac-IWIAAALR[R8]IGDAFN[S5]YYR-NH2
modifications: staple 9-16
SMILES: CC[C@H](C)[C@H](NC(C)=O)C(=O)N[C@@H](Cc1c[nH]c2ccccc12)C(=O)N[C@H](C(=O)N[C@@H](C)C(=O)N[C@@H](C)C(=O)N[C@@H](C)C(=O)N[C@@H](CC(C)C)C(=O)N[C@@H](CCCNC(=N)N)C(=O)N[C@]1(C)CCCCCCC=CCCC[C@@](C)(C(=O)N[C@@H](Cc2ccc(O)cc2)C(=O)N[C@@H](Cc2ccc(O)cc2)C(=O)N[C@@H](CCCNC(=N)N)C(N)=O)NC(=O)[C@H](CC(N)=O)NC(=O)[C@H](Cc2ccccc2)NC(=O)[C@H](C)NC(=O)[C@H](CC(=O)O)NC(=O)CNC(=O)[C@H]([C@@H](C)CC)NC1=O)[C@@H](C)CC
B12: SEQ ID NO: 1753 (peptide)
peptide: Ac-IWIAAALR[R8]IGDAFN[S5]LYA-NH2
modifications: staple 9-16
SMILES: CC[C@H](C)[C@H](NC(C)=O)C(=O)N[C@@H](Cc1c[nH]c2ccccc12)C(=O)N[C@H](C(=O)N[C@@H](C)C(=O)N[C@@H](C)C(=O)N[C@@H](C)C(=O)N[C@@H](CC(C)C)C(=O)N[C@@H](CCCNC(=N)N)C(=O)N[C@]1(C)CCCCCCC=CCCC[C@@](C)(C(=O)N[C@@H](CC(C)C)C(=O)N[C@@H](Cc2ccc(O)cc2)C(=O)N[C@@H](C)C(N)=O)NC(=O)[C@H](CC(N)=O)NC(=O)[C@H](Cc2ccccc2)NC(=O)[C@H](C)NC(=O)[C@H](CC(=O)O)NC(=O)CNC(=O)[C@H]([C@@H](C)CC)NC1=O)[C@@H](C)CC

Starred links: 1 amine or outer side, 2 acyl side, 3 side chain; linkers in the order of their positions; H or OH if unused. Positions of bridges follow the written chain, without caps; N, C: chain ends. Non-standard residues stand in square brackets, D forms with d. St = two pentenyl-alanine olefin side chains, each crosslinked to another residue (stitch), C=CCCCC(CCCC=C)(N[*:1])C(=O)[*:2]; R8 = C=CCCCCCC[C@@](C)(N)C(=O)O; R5 = C=CCCC[C@@](C)(N)C(=O)O; S5 = C=CCCC[C@](C)(N)C(=O)O

For one assay, the target named is T1, BCL-XL (UniProt Q07817 1-209).
T1 construct: Target of the Ki columns
T1 sequence (Q07817 1-209): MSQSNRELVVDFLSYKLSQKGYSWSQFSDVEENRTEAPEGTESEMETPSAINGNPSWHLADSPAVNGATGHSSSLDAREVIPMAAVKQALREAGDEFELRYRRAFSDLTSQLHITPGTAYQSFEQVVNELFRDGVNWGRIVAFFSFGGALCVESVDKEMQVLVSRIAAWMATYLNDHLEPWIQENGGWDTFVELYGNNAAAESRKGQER
The assay can be described thus: Ki (Table 6); method not stated.
For the molecule B1, the affinity corresponds to a Ki of 28.8 nM.

In the case of B2, the Ki – broadly, a measure of affinity in units of concentration, obtained from inhibition or displacement – was 1.4 nM.

With B3, the affinity, expressed as Ki, was 12 nM.

A further assay deals with T2, MCL-1 (UniProt Q07820 172-327, limits assumed).
T2 construct: Target of the Ki columns; also called Myeloid cell leukemia 1
T2 sequence (Q07820 172-327 limits assumed): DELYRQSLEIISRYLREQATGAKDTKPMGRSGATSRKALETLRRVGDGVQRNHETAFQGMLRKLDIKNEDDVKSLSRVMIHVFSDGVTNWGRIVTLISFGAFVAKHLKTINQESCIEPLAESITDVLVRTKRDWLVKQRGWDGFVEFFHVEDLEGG
The assay can be described thus: Ki (Table 6); method not stated.
With B2, the inhibition constant Ki is 1.8 nM.

On to B3, for which the Ki came out at 5.2 nM.

The target of a further assay is T3, BCL-2 (UniProt P10415 1-217, limits assumed).
T3 construct: Target of the Ki columns
T3 sequence (P10415 1-217 limits assumed): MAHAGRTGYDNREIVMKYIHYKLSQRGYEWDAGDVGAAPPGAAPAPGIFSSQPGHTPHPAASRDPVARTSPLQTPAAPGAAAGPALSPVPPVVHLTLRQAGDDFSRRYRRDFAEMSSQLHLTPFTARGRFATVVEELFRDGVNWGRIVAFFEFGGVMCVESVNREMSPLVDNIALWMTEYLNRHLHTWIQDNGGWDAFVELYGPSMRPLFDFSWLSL
The assay can be described thus: Ki (Table 6); method not stated.
B1 showed a Ki of 88.2 nM.

As for B2, the affinity, expressed as Ki, was 3.2 nM.

Regarding B3, the inhibition constant (Ki) amounted to 67 nM.

Another assay addresses T1, BCL-XL. The assay can be described thus: Ki; method not stated; unit not printed (nM per Table 6).
The molecule B4 showed an inhibition constant Ki of 24.2 nM.

On to B5, for which the affinity corresponds to a Ki of 116 nM.

For B6, the Ki worked out at 66.3 nM.

With B7, the affinity, expressed as Ki, was 41.1 nM.

With B8, the Ki stood at 73.8 nM.

B9 registered a Ki of 45.4 nM.

With B10, affinity was put at a Ki of 36 nM.

In turn, B11 yielded an inhibitory constant (Ki) of 186 nM.

With B12, the Ki came to 69.9 nM.

For a further assay, the target named is T2, MCL-1. The assay is described as above.
With B4, the inhibition constant (Ki) is 11.6 nM.

Turning to B5, affinity was put at a Ki of 2.2 nM.

B6 yielded a Ki of 6.6 nM.

Molecule B7 registered a Ki of 4.6 nM.

Regarding B8, the Ki was 10.6 nM.

As to B9, the inhibition constant Ki worked out at 1.4 nM.

The molecule B10 showed a Ki of 4.7 nM.

Turning to B11, the affinity corresponds to a Ki of 18.5 nM.

On to B12, for which the affinity, expressed as Ki, was 17.6 nM.

A further assay has as its target T3, BCL-2. Described as above.
As for B4, the inhibition constant Ki was 57.7 nM.

With B5, the Ki is 138 nM.

In turn, B6 had a Ki of 43.4 nM.

With B7, the Ki was found to be 64.7 nM.

Turning to B8, the Ki was found to be 98.8 nM.

In turn, B9 gave a Ki of 56.4 nM.

B10: the Ki is 62.4 nM.

B11 yielded a Ki of 142 nM.

The molecule B12 returned a Ki of 125 nM.

Values taken from patent US20180273587A1 (AILERON THERAPEUTICS, published 2018).
